# B1: Mab #25 (antibody, V domains shown)
# VH: EVQLVESGAEVKKPGESLKISCKGSGYTFTRYWIGWVRQMPGKGLEWMGIIYPGDSDTRYSPSFQGHVTISADKSISTAYLQWNSLKASDTAMYYCARLPQYCSNGVCQRWFDPWGQGTLVTVSS
# VL: EIVLTQSPSSVSASVGDRVTITCRASQGISSWLAWYQQKPGKAPKLLIYAASSLQSGVPSRFSGSGSGTDFTLTISSLQPEDFATYYCQQGNSFPYTFGQGTNLEIK
# Biological target: Spike proteins of the wild-type Wuhan-Hu-1 strain and the D614G, B.1.1.7, B.1.351, P.1, B.1.526 and
# Assay: cell-based or functional assay
binder,measurement,value
B1,"IC50, infectivity assays using pseudoviruses",0.05 to 0.2 µg/mL

# — patent publication US20240400651A1
